Results on four substances are retold here after paper PMC8488656.

This test concerns the target colicin E7 (ColE7) (UniProt Q47112). Description: ELISA. (In general: ELISA stands for enzyme-linked immunosorbent assay.)
Sequence of UniProt Q47112 (Q47112 whole entry): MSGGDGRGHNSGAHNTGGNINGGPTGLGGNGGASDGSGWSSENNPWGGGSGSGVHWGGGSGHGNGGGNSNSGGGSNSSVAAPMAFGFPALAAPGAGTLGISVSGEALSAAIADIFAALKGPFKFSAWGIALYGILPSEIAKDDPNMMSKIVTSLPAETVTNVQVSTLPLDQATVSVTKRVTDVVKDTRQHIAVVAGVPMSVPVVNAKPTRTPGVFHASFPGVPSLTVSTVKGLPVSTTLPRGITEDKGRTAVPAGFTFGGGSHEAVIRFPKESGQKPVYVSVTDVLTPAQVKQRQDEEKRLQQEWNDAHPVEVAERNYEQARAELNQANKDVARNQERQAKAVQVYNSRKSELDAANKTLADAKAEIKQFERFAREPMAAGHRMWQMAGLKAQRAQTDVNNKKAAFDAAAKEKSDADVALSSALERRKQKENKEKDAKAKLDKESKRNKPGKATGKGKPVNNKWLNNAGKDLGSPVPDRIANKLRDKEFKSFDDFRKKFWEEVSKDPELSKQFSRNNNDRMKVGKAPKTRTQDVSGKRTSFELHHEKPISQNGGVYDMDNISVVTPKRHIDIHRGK
In turn, “YebF-Im7^N49, glycosylated (from UniProt Q03708 1-87) (natural protein)” had an agly/ai (binding activity, glycosylated over aglycosylated variant) of 1.91.
The value for “YebF-Im7^N31, glycosylated (from UniProt Q03708 1-87) (natural protein)” was 0.55; that for “YebF-Im7^N58, glycosylated (from UniProt Q03708 1-87) (natural protein)” was 3.44.
Under “YebF-Im7^N30, glycosylated (from UniProt Q03708 1-87) (natural protein)” stands 1.36.
